The DeepSol protein solubility set

Experiment: soluble on expression in E. coli; label from the status in PepcDB or PDB records

Sequence | soluble on expression in E. coli
GRDGNNLNNPVLLLDTFDFGPREDNWFFYPGGNIGLYCPYSSKGAPEEDSAMVFVSNEVGEHSITTRDLSVNENTIIQFEINVGCSTDSSSADPVRLEFSRDFGATWHLLLPLCYHSSSLVSSLCSTEHHPSSTYYAGTTQGWRREVVHFGKLHLAGSVRFRWYQGFYPAGSQPVTWAIDNVYIGPQCEEMCYGHGSCINGTKCICDPGYSGPTCKISTKNPDFLKDDFEGQLESDRFLLMSGGKPSRKCGILSSGNNLFFNEDGLRMLVTRDLDLSHARFVQFFMRLGCGKGVPDPRSQPVLLQYSLNGGLSWSLLQEFLFSNSSNVGRYIALEMPLKARSGSTRLRWWQPSENGHFYSPWVIDQILIGGNISGNTVLEDDFSTLDSRKWLLHPGGTKMPVCGSTGDALVFIEKASTRYVVTTDIAVNEDSFLQIDFAASCSVTDSCYAIELEYSVDLGLSWHPLVRDCLPTNVECSRYHLQRILVSDTFNKWTRITLPLPSYTRSQATRFRWHQPAPFDKQQTWAIDNVYIGDGCLDMCSGHGRCVQGSCVCDEQWGGLYCDEPETSLPTQLKDNFNRAPSNQNWLTVSGGKLSTVCGAVASGLALHFSGGCSRLLVTVDLNLTNAEFIQFYFMYGCLITPSNRNQGVLLEYSVNGGITWNLLMEIFYDQYSKPGFVNILLPPDAKEIATRFRWWQPRHDGLDQNDWAIDNVLISRLENLYFQ | soluble
MGSDKIHHHHHHMTMTDERPVLVATEADDITADMVITELNRRDVPVVRFNLADIGEGLTVSARFGTCPAPVVGQVRTSSRTADLTRVRSVYWRRPEWPSFPHLSPDDSRFAAAQVRYGLGGTLYALDHPLWVNHPLRIAAADYKPAQLALAQQLGFTIPTTLVTNDPAEAREFIRTQGDVIFKTLRWTPYTRDGVPVTGWADPVTADEIDDNVRITPHLFQARVDKVTDLRVLIVGQHTFAVRIDSELLDWRRDYSVLTYTVEHLPDSVDKALHAYLDRLELVSGSFDLTVDRAGVYWWLELNPNGQWGWLEKETGLPMSAAFADLLVQGDRQ | not soluble
MTSAEMTSPNNNSEHQAIAKMRTMIEGFDDISHGGLPIGRSTLVSGTSGTGKTLFSIQFLYNGIIEFDEPGVFVTFEETPQDIIKNARSFGWDLAKLVDEGKLFILDASPDPEGQEVVGGFDLSALIERINYAIQKYRARRVSIDSVTSVFQQYDASSVVRRELFRLVARLKQIGATTVMTTERIEEYGPIARYGVEEFVSDNVVILRNVLEGERRRRTLEILKLRGTSHMKGEYPFTITDHGINIFPLGAMRLTQRSSNVRVSSGVVRLDEMCGGGFFKDSIILATGATGTGKTLLVSRFVENACANKERAILFAYEESRAQLLRNAYSWGMDFEEMERQNLLKIVCAYPESAGLEDHLQIIKSEINDFKPARIAIDSLSALARGVSNNAFRQFVIGVTGYAKQEEITGLFTNTSDQFMGAHSITDSHIATITDTIILLQYVEIRGEMSRAINVFKMRGSWHDKAIREFMISDKGPDIKDSFRNFERIISGSPTRITVDEKSELSRIVRGVQEKGPES | soluble
MSEVTNELMKTIGGLAKNPNFYLMMGPHHRGQRGHHRGQARLMHLLEKYDGLSVGEIAEILDVRPSSVTSLVDKLEENDFVERIVDEIDKRITLIKLTKKGHAFLKNKKDEADDLSEEIFARLSEEEKDTLLRLLKRVSENLNDVDFGDYISKMVNDSIGRHFKFDDGDIHINI | not soluble
MKEDPRIIKTLSKLQKAFVMLLKTYDAGDINVRQISDEAGVTRGAFYSHFSDKKEFVNFTINELVGSLFNSSLEHHHHHH | not soluble
MPVLSIIACGMLEDELVHVLSKDCELKQLIVVENGNNSGFLRKLRAGKCIPRTIPLDRVQMFFKTGFNPDFETLAKFLAPFPFLGKVCEKMNEKAGQQVSVVVNLLRLGLHADLELLKSEVFRNIREMAAFSDGILIFYGTCGHVLGELEKDFIDLGCPLFFLKDKAGEIVEDCISTALGGNEAYARAMLACRGKGTIYLTPMWASSWKNFEKGSGSKDLNNRYLKNSRYCLAVKIETGISYEPDFHQNVQEFARTFGMKTITLKGSSEITEQGYFDARKALVKNSDCLPKNHQDMEFLEHHHHHH | not soluble
MFGVKDAIFKIKRSIAGTDSSDSTAYTTASESSPQLKDSHNPFRNKTTSERTIVEEGSLPPVRLNGYLPSTKNKLLTPEMCDEIRTLMPTRIQLYTEWNLLYSLEQHGSSLHSLYSNVAPDSKEFRRVGYVLVIKDRKNGIFGAYSNEAFHPNEHRQYTGNGECFLWKLDKVPDVNISEKEESEQEGKEGKEEGDKEERWRFSGYPYTGVNEFAIYCTSEFLSMGAGDGHYGLLCDDGLLHGVSNPCQTYGNEVLSKEGKKFSIVALEVWRVG | soluble
MQITTTFRHMEQSEALKSYAAEKLERVKKYIDEPITAQVFLTVEKIRHIAEVTLTAKGITIKAAEETNDMYAALDAVIDKIERQLRRYKERLKEHKPSADDRALEIQKSVVTAESIEQRTEPVVIRSKTISIKPMSVEEAVMQMDLLHKDFLVFTDASTEAINVVYRRKDGNYGLIEPQRKLEHHHHHH | soluble
MASLEVSRSPRRSRRELEVRSPRQNKYSVLLPTYNERENLPLIVWLLVKSFSESGINYEIIIIDDGSPDGTRDVAEQLEKIYGSDRILLRPREKKLGLGTAYIHGMKHATGNYIIIMDADLSHHPKFIPEFIRKQKEGNFDIVSGTRYKGNGGVYGWDLKRKIISRGANFLTQILLRPGASDLTGSFRLYRKEVLEKLIEKCVSKGYVFQMEMIVRARQLNYTIGEVPISFVDRVYGESKLGGNEIVSFLKGLLTLFATT | not soluble
MKVYLESFGCSASQASAEIMKASIGKLGHELLSPENAGQAEVYICNSCTVKYTTEQKILYKIRSMGEKGVQVIVSGCMPEVQLEDILHANPEAHILGVNAVSRLGDLLSTIEQRKKTGIPGGERLEIRTSEPQGFLNVPRERSNPNIHICQISQGCNFACSYCIVKHARGKLLSFPPEEIIEDIRSAVADGCREIWLTSQDDSQYGMDTGVKLPELLRAISEIPGDFKVRVGMMNPFSVLPILDDLVDAFDSDKIFKLLHLPIQSASHSVLKKMNRLHKMDSVDEIITKFRAHFEDLSLFTDIIVGFCDETDEDFEETIEWVKKYRPEKINISRYSPRPHTKAFSFRNLDSRISVKRSHQLHKVCEQIKIESKNEMIGWKGRVFVSKYTEIGDVLTRTDSYRPVVISGSDLRPGEYAEVKITGAKPGYFLGKLVSLEHHHHHH | soluble
MDLSMTTPEEITQYLQDHPEFFEEHPDLLESLRFPHPYEGRVISINERQVAMLREKNKLLQNRLQELIDVGENNDAISEKMHRLTVALLGFGSLPELLHELQYHLCEDFSIPHVVLRLWQIDEFGTEADLPSPEFDPISNNVRILAQGMLRPYCGPEVDDEIRQWFAQDAEYLKSFAVIPLKKQSNFGLLVMASPEAERFYPDMGTLYLERLGDMVSSSIMRLIQQTPGAANRESAS | not soluble
MGSDKIHHHHHHSRSTQGVRSLGFYNRHTGERGQGSYWIDGDYQTNTLNDFNHLLRDHRQNETAPMDKRLFDLLFSLKQTLQVDEDFHVISGYRSPKTNQMLANRSSAVAKKSYHMKGMAMDIALPDVNLKDLRDAAISLKLGGVGYYPSSGFVHVDTGPIRTW | not soluble
GMVGINTDTENISELLKTYWSIQRISAGYADQNAASLGLTIQQLAMINVIYSTPGISVADLTKRLIITGSSAAANVDGLISLGLVVKLNKTIPNDSMDLTLKLSKKGEDLSKRSTANAFMYKAMMKVFENLTENEIEELIRLNKKVETLLKKSK | soluble
MATITDIAKVANVSISTVSRVLNYDPNLSVTEETKRKIFEAAETLNYTKYKTKNKNKQQEQLTPNLSVQTAPQEPSIAVVQWRSDDEELTDIYYMSIRLGAEKRAEELGYNILKVSQLEQHNLQGIDGILAIGKFTQKTLQELQQLHPNLCVIGSNFPLEEFDSVNTDFYQATEIALTHLLELGHEKIAFIGAEESENMYGFRRYKTPTTNAYLDIMQHYHLFNEDYFILKENGMLDVKTGEQLTEEALEKWGNDLPTAILAYNDAFAIGVIHTLAAHGIKVPEEISVMGINDISISQYVSPPLSSVHAFTEEMGETGINLLHKRIQMPSIPRRVLLNTELVVRQSTTSPRQK | soluble
MGHHHHHHSHMEKALLGACDCTQIVKPSGVHLKLVLRFSDFGKAMFKPMRQQRDEETPVDFFYFIDFQRHNAEIAAFHLDRILDFRRVPPTVGRIVNVTKEILEVTKNEILQSVFFVSPASNVCFFAKCPYMCKTEYAVCGNPHLLEGSLSAFLPSLNLAPRLSVPNPWIRSYTLAGKEEWEVNPLYCDTVKQIYPYNNSQRLLNVIDMAIFDFLIGNMDRHHYEMFTKFGDDGFLIHLDNARGFGRHSHDEISILSPLSQCCMIKKKTLLHLQLLAQADYRLSDVMRESLLEDQLSPVLTEPHLLALDRRLQTILRTVEGCIVAHGQQSVIV | soluble
MVHWADYIADKIIRERGEKEKYVVESGITPSGYVHVGNFRELFTAYIVGHALRDKGYEVRHIHMWDDYDRFRKVPRNVPQEWKDYLGMPISEVPDPWGCHESYAEHFMRKFEEEVEKLGIEVDLLYASELYKRGEYSEEIRLAFEKRDKIMEILNKYREIAKQPPLPENWWPAMVYCPEHRREAEIIEWDGGWKVKYKCPEGHEGWVDIRSGNVKLRWRVDWPMRWSHFGVDFEPAGKDHLVAGSSYDTGKEIIKEVYGKEAPLSLMYEFVGIKGQKGKMSGSKGNVILLSDLYEVLEPGLVRFIYARHRPNKEIKIDLGLGILNLYDEFEKVERIYFGVEGGKGDDEELRRTYELSMPKKPERLVAQAPFRFLAVLVQLPHLTEEDIINVLIKQGHIPRDLSKEDVERVKLRINLARNWVKKYAPEDVKFSILEKPPEVEVSEDVREAMNEVAEWLENHEEFSVEEFNNILFEVAKRRGISSREWFSTLYRLFIGKERGPRLASFLASLDRSFVIKRLRLEG | soluble
LNKTVKHMWPFICQFIEKLFRETIEPAVRGANTHLSTFSFTKVDVGQQPLRINGVKVYTENVDKRQIILDLQISFVGNCEIDLEIKRYFCRAGVKSIQIHGTMRVILEPLIGDMPLVGALSIFFLRKPLLEINWTGLTNLLDVPGLNGLSDTIILDIISNYLVLPNRITVPLVSEVQIAQLRFPVPKGVLRIHFIEAQDLQGKDTYLKGLVKGKSDPYGIIRVGNQIFQSRVIKENLSPKWNEVYEALVYEHPGQELEIELFDEDPDKDDFLGSLMIDLIEVEKERLLDEWFTLDEVPKGKLHLRLEWLTLMPNASNLDKVLTDIKADKDQANDGLSSALLILYLDSARNLPSGKKISSNPNPVVQMSVGHKAQESKIRYKTNEPVWEENFTFFIHNPKRQDLEVEVRDEQHQCSLGNLKVPLSQLLTSEDMTVSQRFQLSNSGPNSTIKMKIALRVLHLEKRERPPDHQHSAQVKRPSVSKEGRKTSIKSHMSGSPGPGGSNTAPSTPVIGGSDKPGMEEKAQPPEAGPQGLHDLGRSSSSLLASPGHISVKEPTPSIASDISLPIATQELRQRLRQLENGTTLGQSPLGQIQLTIRHSSQRNKLIVVVHACRNLIAFSEDGSDPYVRMYLLPDKRRSGRRKTHVSKKTLNPVFDQSFDFSVSLPEVQRRTLDVAVKNSGGFLSKDKGLLGKVLVALASEELAKGWTQWYDLTEDGTRPQAMT | soluble
MHLKNNQTLANGATVTIYPTTTEPTNYVVYLHGGGMIYGTKSDLPEELKELFTSNGYTVLALDYLLAPNTKIDHILRTLTETFQLLNEEIIQNQSFGLCGRSAGGYLMLQLTKQLQTLNLTPQFLVNFYGYTDLEFIKEPRKLLKQAISAKEIAAIDQTKPVWDDPFLSRYLLYHYSIQQALLPHFYGLPENGDWSAYALSDETLKTFPPCFSTASSSDEEVPFRYSKKIGRTIPESTFKAVYYLEHDFLKQTKDPSVITLFEQLDSWLKER | soluble
NCRLFIGGIPKMKKREEILEEIAKVTEGVLDVIVYASAADKMKNRGFAFVEYESHRAAAMARRKLMPGRIQLWGHQIAVDWAEPEIDVDEDVMETV | soluble
ANQQTSGKVLYEGKEFDYVFSIDVNEGGPSYKLPYNTSDDPWLTAYNFLQKNDLNPMFLDQVAKFIIDNTKGQMLGLGNP | soluble
